Consider one molecule from publication PMC11377297, “Mechanical disengagement of the cohesin ring” (Nature Structural & Molecular Biology, 2023).

In the test the target is T1, Smc1^Psm1-SNAP subunit of the fission yeast cohesin tetramer (head-tagged variant, TMR-labelled) (fission yeast, UniProt O94383 1-1228, TMR fluorophore on the SNAP-tag).
T1 construct: Psm1 (Smc1), fission yeast cohesin subunit; source: recombinant, purified as part of the cohesin tetramer; not shown: SNAP-tag, C-terminal, kept
T1 sequence (looked up): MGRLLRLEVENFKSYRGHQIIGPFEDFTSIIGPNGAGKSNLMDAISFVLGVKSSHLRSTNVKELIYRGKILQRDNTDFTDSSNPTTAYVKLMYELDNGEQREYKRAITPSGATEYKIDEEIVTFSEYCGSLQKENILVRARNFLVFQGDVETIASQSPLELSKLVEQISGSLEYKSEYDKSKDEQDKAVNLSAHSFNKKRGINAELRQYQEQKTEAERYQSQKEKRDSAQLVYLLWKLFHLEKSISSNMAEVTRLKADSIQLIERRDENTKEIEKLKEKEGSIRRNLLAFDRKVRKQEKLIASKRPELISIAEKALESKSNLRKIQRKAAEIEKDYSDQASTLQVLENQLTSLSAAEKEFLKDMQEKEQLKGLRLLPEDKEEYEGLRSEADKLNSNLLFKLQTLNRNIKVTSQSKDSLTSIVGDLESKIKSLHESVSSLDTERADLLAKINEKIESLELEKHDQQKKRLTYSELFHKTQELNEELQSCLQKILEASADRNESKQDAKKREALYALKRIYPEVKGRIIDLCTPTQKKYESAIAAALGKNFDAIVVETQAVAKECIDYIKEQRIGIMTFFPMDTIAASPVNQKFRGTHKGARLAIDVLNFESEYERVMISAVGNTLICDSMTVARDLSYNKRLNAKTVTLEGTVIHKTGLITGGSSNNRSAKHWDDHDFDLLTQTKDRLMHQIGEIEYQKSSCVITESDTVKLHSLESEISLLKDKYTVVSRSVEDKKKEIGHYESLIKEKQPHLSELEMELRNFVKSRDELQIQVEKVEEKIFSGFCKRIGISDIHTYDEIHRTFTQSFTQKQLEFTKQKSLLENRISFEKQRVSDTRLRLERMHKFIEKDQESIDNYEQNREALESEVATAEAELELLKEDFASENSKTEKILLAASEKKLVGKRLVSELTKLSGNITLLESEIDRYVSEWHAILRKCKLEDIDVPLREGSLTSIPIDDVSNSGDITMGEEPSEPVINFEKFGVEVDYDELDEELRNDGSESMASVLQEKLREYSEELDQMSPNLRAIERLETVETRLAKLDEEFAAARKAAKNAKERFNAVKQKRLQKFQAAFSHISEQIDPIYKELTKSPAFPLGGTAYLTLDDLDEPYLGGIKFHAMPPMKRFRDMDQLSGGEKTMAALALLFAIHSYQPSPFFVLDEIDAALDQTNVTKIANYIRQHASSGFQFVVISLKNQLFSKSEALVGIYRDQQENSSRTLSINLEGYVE
Nature of the test: co-purification of the recombinant complex (SDS-PAGE, Coomassie); purified cohesin complex resolved by SDS-PAGE; purification methods in the Supplementary Information.

B1: Smc3^Psm3-CLIP-biotin subunit of the fission yeast cohesin tetramer (head-tagged variant) (natural protein, UniProt O42649 1-1194, looked up)
chain: MYITKIVIQGFKSYKDYTVIEPLSPHHNVIVGRNGSGKSNFFAAIRFVLSDAYTHLSREERQALLHEGPGATVMSAYVEVTFANADNRFPTGKSEVVLRRTIGLKKDEYSLDKKTVSKTEVINLLESAGFSRSNPYYIVPQGRVTSLTNAKDSERLELLKEVAGTQIYENRRAESNKIMDETIQKSEKIDELLQYIEERLRELEEEKNDLAVYHKKDNERRCLEYAIYSREHDEINSVLDALEQDRIAALERNDDDSGAFIQREERIERIKAEITELNHSLELLRVEKQQNDEDYTNIMKSKVALELQSSQLSRQIEFSKKDESSKLNILSELESKISEKENELSEILPKYNAIVSEADDLNKRIMLLKNQKQSLLDKQSRTSQFTTKKERDEWIRNQLLQINRNINSTKENSDYLKTEYDEMENELKAKLSRKKEIEISLESQGDRMSQLLANITSINERKENLTDKRKSLWREEAKLKSSIENVKDDLSRSEKALGTTMDRNTSNGIRAVKDIAERLKLEGYYGPLCELFKVDNRFKVAVEATAGNSLFHIVVDNDETATQILDVIYKENAGRVTFMPLNKLRPKAVTYPDASDALPLIQYLEFDPKFDAAIKQVFSKTIVCPSIETASQYARSHQLNGITLSGDRSDKKGALTAGYRDYRNSRLDAIKNVKTYQIKFSDLQESLEKCRSEIESFDQKITACLDDLQKAQLSLKQFERDHIPLKDELVTITGETTDLQESMHHKSRMLELVVLELHTLEQQANDLKSELSSEMDELDPKDVEALKSLSGQIENLSHEFDAIIKERAHIEARKTALEYELNTNLYLRRNPLKAEIGSDNRIDESELNSVKRSLLKYENKLQIIKSSSSGLEEQMQRINSEISDKRNELESLEELQHEVATRIEQDAKINERNAAKRSLLLARKKECNEKIKSLGVLPEEAFIKYVSTSSNAIVKKLHKINEALKDYGSVNKKAYEQFNNFTKQRDSLLARREELRRSQESISELTTVLDQRKDEAIERTFKQVAKSFSEIFVKLVPAGRGELVMNRRSELSQSIEQDISMDIDTPSQKSSIDNYTGISIRVSFNSKDDEQLNINQLSGGQKSLCALTLIFAIQRCDPAPFNILDECDANLDAQYRSAIAAMVKEMSKTSQFICTTFRPEMVKVADNFYGVMFNHKVSTVESISKEEAMAFVEG
modifications: biotin on the CLIP-tag
notes: Psm3 (Smc3), fission yeast cohesin subunit; source: recombinant, purified as part of the cohesin tetramer; not shown: CLIP-tag, C-terminal, kept
B1: the binding result is recorded as “binds”.
